In ChEMBL document CHEMBL1132501, “Synthesis and anti-Helicobacter pylori activity of FR182024, a new cephem derivative” (1999):

Key:
[1] = substrate: O=C(Cc1cccs1)N[C@@H]1C(=O)N2C(C(=O)[O-])=C(C[n+]3ccccc3)CS[C@H]12; assay: The compound was tested against Bacteroides fragilis FP784 and its stability towards beta-lactamase was evaluated; format: functional
[2] = substrate: O=C(Cc1cccs1)N[C@@H]1C(=O)N2C(C(=O)[O-])=C(C[n+]3ccccc3)CS[C@H]12; assay: The compound was tested against Bacteroides fragilis FP784 and its stability towards beta-lactamase relative to cephaloridine was evaluated; format: functional

B1: Beta-lactamase (Enterobacter cloacae), P05364 (protein)
chain: MMRKSLCCALLLGISCSALATPVSEKQLAEVVANTITPLMKAQSVPGMAVAVIYQGKPHYYTFGKADIAANKPVTPQTLFELGSISKTFTGVLGGDAIARGEISLDDAVTRYWPQLTGKQWQGIRMLDLATYTAGGLPLQVPDEVTDNASLLRFYQNWQPQWKPGTTRLYANASIGLFGALAVKPSGMPYEQAMTTRVLKPLKLDHTWINVPKAEEAHYAWGYRDGKAVRVSPGMLDAQAYGVKTNVQDMANWVMANMAPENVADASLKQGIALAQSRYWRIGSMYQGLGWEMLNWPVEANTVVEGSDSKVALAPLPVAEVNPPAPPVKASWVHKTGSTGGFGSYVAFIPEKQIGIVMLANTSYPNPARVEAAYHILEALQ
For B1, which Km [1] is on record?
The Km was 31.7 µg/mL.

What about the Vmax [2] of the same protein?
The Vmax was 1.
